± gives the uncertainty stated by the source.
Test: self-splicing fitness, log relative to wild type (ln ratio); higher = more splicing; Tetrahymena group I intron in knt gene, E. coli kanamycin selection, DiMSum; sequences stand for … in CUCUCU…GGAGGGAAAAGUUAUCAGGCAUGCACCUGGUAGCUAGUCUUUAAACCAAUAGAUUGCAUCGGUUUAAAAGGCAAGACCGUCAAAUUGCGGGAAAGGGGUCAACAGCCGUUCAGUACCAAGUCUCAGGGGAAACUUUGAGAUGGCCUUGCAAAGGGUAUGGUAAUAAGCUGACGGACAUGGUCCUAACCACGCAGCCAAGUCCUAAGUCAACAGAUCUUCUGUUGAUAUGGAUGCAGUUCACAGACUAAAUGUCGGUCGGGGAAGAUGUAUUCUUCUCAUAAGAUAUAGUCGGACCUCUCCUUAAUGGGAGCUAGCGGAUGAAGUGAUGCAACACUGGAGCCGCUGGGAACUAAUUUGUAUGCGAAAGUAUAUUGAUUAGUUUUGGAGUACUCGUGGUCG
In short: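 DiMSum derived fitness as the error-weighted combination of fold changes across replicates, kanamycin versus no kanamycin, normalised to wild type. E. coli BL21(DE3) held the library, which randomised all eight P1ex-region intron nucleotides within the knt kanamycin-resistance gene on pET-22b(+). Six replicate transformations grew overnight at 37°C or 30°C on LB agar with or without 25 μg/mL kanamycin, also containing 100 μg/mL carbenicillin, 50 μM IPTG and 0.2% rhamnose, and pooled colonies were amplicon-sequenced on an Illumina HiSeq 2500.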

Sequence	self-splicing fitness (ln) (30 °C)	self-splicing fitness (ln) (37 °C)
UGUCAGCAAUAUUACGGGGC	-2.84 ± 0.16	-3.02 ± 0.26
AUCCAGCAAUAUUACGCGCU	-3.57 ± 0.22	-2.37 ± 0.22
ACAUAGCAAUAUUACGCCGG	-0.986 ± 0.14	0.077 ± 0.21
UCUGAGCAAUAUUACGGAGC	-2.77 ± 0.21	-2.92 ± 0.2
CACAAGCAAUAUUACGAUAA	-4.26 ± 0.33	-2.22 ± 0.16
CACUAGCAAUAUUACGAGAG	-3.21 ± 0.2	-1.73 ± 0.14
UCGUAGCAAUAUUACGGCAG	-2.75 ± 0.13	-2.07 ± 0.15
AUAUAGCAAUAUUACGAGAU	-3.01 ± 0.14	-0.91 ± 0.13
AGUAAGCAAUAUUACGGCUC	-2.15 ± 0.2	-1.79 ± 0.27
UACCAGCAAUAUUACGUAGU	-2.96 ± 0.099	-1.65 ± 0.1
AGAUAGCAAUAUUACGUGCA	-0.725 ± 0.13	-0.616 ± 0.15
UAUGAGCAAUAUUACGGGGA	-2.94 ± 0.39	–
AAUUAGCAAUAUUACGCAAA	-1.96 ± 0.18	0.00784 ± 0.17
UAGGAGCAAUAUUACGAGCA	-2.38 ± 0.17	-1.58 ± 0.15
UCCGAGCAAUAUUACGUGUU	-2.75 ± 0.16	-2.36 ± 0.15
AAGGAGCAAUAUUACGCACC	–	-1.22 ± 0.3
ACUUAGCAAUAUUACGGACG	-1.59 ± 0.1	-0.553 ± 0.12
GAGGAGCAAUAUUACGUGUU	-3.03 ± 0.21	-3.82 ± 0.42
AGAGAGCAAUAUUACGGCAG	-1.51 ± 0.24	-1.42 ± 0.43
UAAGAGCAAUAUUACGGCUU	-2.3 ± 0.2	-1.44 ± 0.22
UUGCAGCAAUAUUACGCCAU	-2.8 ± 0.11	-2.49 ± 0.16
UACGAGCAAUAUUACGCCCA	-2.24 ± 0.27	-1.02 ± 0.29
ACAUAGCAAUAUUACGCCAU	-3.25 ± 0.28	-2.08 ± 0.22
CGCCAGCAAUAUUACGGGCC	-3.13 ± 0.21	-1.72 ± 0.2
UCUUAGCAAUAUUACGAUGA	-0.467 ± 0.082	0.223 ± 0.084
ACUCAGCAAUAUUACGUUCU	-0.967 ± 0.079	-0.242 ± 0.074
GUAGAGCAAUAUUACGUUCG	-1.08 ± 0.065	-0.139 ± 0.13

Sequence	self-splicing fitness (ln) (30 °C)	self-splicing fitness (ln) (37 °C)
GAGCAGCAAUAUUACGUAGG	-2.83 ± 0.13	-2.54 ± 0.2
AUCAAGCAAUAUUACGAACA	-1.12 ± 0.08	-0.578 ± 0.08
CGUAAGCAAUAUUACGGCCA	-2.86 ± 0.42	-1.74 ± 0.21
AGACAGCAAUAUUACGGAAC	–	-1.4 ± 0.22
CUCGAGCAAUAUUACGCGAA	-3.3 ± 0.34	-2.41 ± 0.37
AAGAAGCAAUAUUACGUGCC	-1.01 ± 0.11	-1.14 ± 0.11
CUCCAGCAAUAUUACGAUUA	-2.63 ± 0.32	-2.37 ± 0.37
ACAUAGCAAUAUUACGUCCA	-1.24 ± 0.14	-0.641 ± 0.17
CCCGAGCAAUAUUACGCUUC	-3.7 ± 0.47	-2.32 ± 0.29
UUUUAGCAAUAUUACGCCUA	-1 ± 0.2	-0.553 ± 0.22
GAAUAGCAAUAUUACGCGGA	-1.54 ± 0.15	-1.43 ± 0.15
CAAAAGCAAUAUUACGCUCG	-1.25 ± 0.12	-0.455 ± 0.12
ACGAAGCAAUAUUACGGUAA	-2.49 ± 0.17	-1.33 ± 0.14
GGAAAGCAAUAUUACGGCAU	-1.03 ± 0.13	-0.672 ± 0.15
CCUUAGCAAUAUUACGUAUC	-4.15 ± 0.27	-2.17 ± 0.26
CACCAGCAAUAUUACGAUAA	-4.88 ± 0.31	-2.14 ± 0.19
CCAAAGCAAUAUUACGCGGU	-4.85 ± 0.29	-1.78 ± 0.21
UUCUAGCAAUAUUACGAACA	–	-0.35 ± 0.37
CAAGAGCAAUAUUACGUUGG	-2.67 ± 0.13	-1.78 ± 0.12
AGUCAGCAAUAUUACGAUCC	0.284 ± 0.16	0.198 ± 0.23
GGACAGCAAUAUUACGUUCA	-0.478 ± 0.086	-0.434 ± 0.1
CAACAGCAAUAUUACGGCGA	-1.5 ± 0.094	-0.709 ± 0.087
GUCAAGCAAUAUUACGUGCU	-3.07 ± 0.13	-2.7 ± 0.23
UUAGAGCAAUAUUACGAGCA	-2.27 ± 0.42	-1.09 ± 0.32
AGUUAGCAAUAUUACGGGGA	-1.84 ± 0.17	-3.12 ± 0.19
AUGUAGCAAUAUUACGAAGA	–	-0.739 ± 0.21
GAUUAGCAAUAUUACGCUCA	-0.572 ± 0.12	-0.182 ± 0.17

Sequence	self-splicing fitness (ln) (30 °C)	self-splicing fitness (ln) (37 °C)
UGACAGCAAUAUUACGCCGG	-0.618 ± 0.12	-0.791 ± 0.15
GGCAAGCAAUAUUACGUUGG	-2.5 ± 0.075	-2.93 ± 0.12
GGUUAGCAAUAUUACGGUCC	-1.77 ± 0.49	–
GCAGAGCAAUAUUACGGUCC	-2.22 ± 0.29	-2.05 ± 0.4
AGCGAGCAAUAUUACGUAAC	-3.79 ± 0.29	-1.46 ± 0.24
UGUCAGCAAUAUUACGACGU	-1.31 ± 0.098	-0.968 ± 0.14
AGCCAGCAAUAUUACGGUGU	-1.99 ± 0.084	-2.51 ± 0.12
ACGAAGCAAUAUUACGACAG	-1.59 ± 0.11	-0.583 ± 0.13
ACCGAGCAAUAUUACGAUGA	-2.47 ± 0.17	-2.73 ± 0.28
GCCAAGCAAUAUUACGACGA	-1.84 ± 0.15	-1.02 ± 0.2
UAGCAGCAAUAUUACGUUCU	-1.45 ± 0.1	-0.606 ± 0.12
GAUUAGCAAUAUUACGAGAA	–	-1.51 ± 0.3
UCGGAGCAAUAUUACGUCGU	-1.37 ± 0.25	-1.73 ± 0.3
ACUCAGCAAUAUUACGGGAA	-0.98 ± 0.088	-0.568 ± 0.095
CAAUAGCAAUAUUACGCAAU	-3.23 ± 0.34	-2.09 ± 0.28
AGUAAGCAAUAUUACGUUCU	-0.729 ± 0.085	-1.21 ± 0.11
GGUGAGCAAUAUUACGCAGG	-3.7 ± 0.34	-2.07 ± 0.41
UAGUAGCAAUAUUACGAGCU	–	-0.383 ± 0.21
GGUAAGCAAUAUUACGCUAA	-2.29 ± 0.18	0.0407 ± 0.15
AAAAAGCAAUAUUACGAAUA	-1.42 ± 0.1	-0.458 ± 0.095
CUAGAGCAAUAUUACGCGAA	-3.1 ± 0.38	-2.09 ± 0.43
CUUGAGCAAUAUUACGCCGC	-1.08 ± 0.47	–
UCACAGCAAUAUUACGUUGU	-4.29 ± 0.18	-2.14 ± 0.12
AGACAGCAAUAUUACGUGUA	-1.89 ± 0.078	-1.61 ± 0.069
GGGUAGCAAUAUUACGGCCG	-0.902 ± 0.086	-0.295 ± 0.15

Reference: the supplement of paper PMC7877785
